Assay results reported in the RNAGym collection of RNA variant scans (doi:10.7554/elife.90254).

B1: OR4K15 (parent)
chain: GUUAACGGUCAUAGGCCAUGGAAACUAGGAGCACCAUUUCGCUGCCAGUGAAGAAAUGAACAAAGAAAAUCUGGGCCAGGCAGGCAUCAAAAGAAAUAGUCUUGCGCUCAACCAGAAAGUCUGUAAUCAUUUUAAGGGUA

Variants of: B1
Assay: self-cleavage, relative activity (ratio to wild type); higher = more cleavage; in vitro, sequencing; the parent is a self-cleaving ribozyme

Variant | self-cleavage
A13G A140G | 0.62
C101U U127A | 0.45
U19C A56G | 1.29
A64G A114G | 0.31
U43A A78U | 1.02
A94C A116U | 0.18
A62G A117G | 1.43
A63G A64U | 1.62
A5U G29U | 1.39
A92C U103C | 0.93
U38A G137U | 2.73
A91G U108A | 0.01
C34U U122C | 2.62
A4G A52G | 1.08
A125U U132C | 1.97
A56G A64G | 1.44
A92G A117U | 0.8
A59U U127C | 0.28
A78U U131A | 0.18
C32U A47U | 0.9
A18U A114G | 0.35
A60G A66G | 1.15
A110G U132C | 0.07
C71U C105U | 0.07

Variant | self-cleavage
A5U A117G | 1.74
G74U A82G | 0.28
U2C A116U | 0
U57A G138A | 1.33
A60G G84U | 0.43
U39C A60G | 1.42
U39C U108A | 0.03
U39C A64G | 1.88
U57C U103G | 0.02
A62G A69G | 0.68
G15A A23G | 0.9
U39A A66G | 1.87
C61U A98G | 0.45
C85A A135G | 1.54
U3A A23G | 1.17
A30U A92G | 0.91
C35U A126G | 0.58
A51U U70C | 0.46
A90G U103A | 0.26
U12A A55U | 2.25
U12A U38C | 1.4
U26C U70A | 0.63
A5G A60G | 1.08
A18C A47G | 0.59

Variant | self-cleavage
A11G A52G | 1.03
U72A U103C | 0.14
A62G A114G | 0.44
U72C A96G | 0.05
U49C U120G | 1.33
U9A G115A | 0.23
A36U A92G | 1.61
A23G U132A | 0.86
A11G U43G | 1.18
U37A U70C | 1.21
A114G | 0.45
A82G A91G | 0.12
A59C U102C | 1.51
A27C A78C | 0.25
U49C A89U | 2.12
A23C A51U | 1.46
A55U A96G | 1.61
A118G U132C | 0.18
A47G A140U | 1.24
A51U U122A | 0.74
A11C A63G | 1.91
G44A A78G | 0.24
A117U U139C | 1.57
U49C U130C | 0.77

Variant | self-cleavage
G31A A54G | 1.21
C76U G123A | 0.13
G79A A86G | 0.22
G29U A118G | 0.78
A5G U37C | 1.29
U12C A129G | 0.89
U87C A134G | 1.63
A5U U43A | 2.16
A23U A51U | 1.33
U124C G138C | 1.31
A64G A140U | 1.37
A118G U139C | 1.43
A33G U43A | 1.32
A33U A36G | 2.32
G84A U127C | 2.46
U130C G138A | 1.41
G48U A114U | 0.09
A5G A59G | 0.99
U2G A94G | 0.48
A22G U72C | 0.33
A66G G83A | 1.56
A30G G115U | 0.21
G15A U19C | 0
A33C A96G | 2.84

Variant | self-cleavage
A33U U139G | 2.5
A94U A126G | 1.84
A11U U108C | 0.01
C16U U120C | 1.42
U2A C77U | 1.39
C10U U57C | 1.03
U19G A51G | 0.33
A33G C42G | 1.02
A36U U122C | 1.15
A52G U100A | 0.65
C6A A33U | 1.06
U12C U127C | 0.62
U108C A116U | 0
G48A A98U | 2.56
G20C A36G | 2.25
U43G A67G | 1.89
A55G A114C | 0.05
A36U A56C | 1.49
A89G G123A | 1.52
G31C U108C | 0.03
A92U U122C | 1.3
U37C A89G | 1.52
A59U | 1.14
A22U U139A | 1.63

Variant | self-cleavage
U87C C112U | 0.02
A13U A18C | 1.62
U39A A91U | 0.94
A23U A69G | 1.02
A13G A86G | 0.89
A11G A62G | 1.11
G15A U120A | 1.72
A59G | 1.06
G115U U131C | 0.06
A69G A140G | 1.93
A33G A114U | 0.02
A62U G84C | 0.25
A36U A55U | 0.98
U57A A111G | 0.02
A62G C85U | 0.63
G15A A129G | 1.19
U57A U124C | 0.68
U9C U102A | 1.31
G29C U37C | 1.25
U43C A117U | 1.17
U19C U72A | 0.33
C105U A118G | 0.04
A54G U122G | 2.7
A98G U139G | 0.86

Variant | self-cleavage
G106C | 0.01
G41U A82G | 0.2
G115U A117G | 0.39
U2C A23G | 1.01
A63G A66U | 1.49
A11G U87C | 1.14
A68G C105U | 0.14
A82U A140U | 0.24
U12C U57G | 1.33
A51U G74A | 0.22
U12C A30G | 1.28
U120C A140G | 1.07
G58U A67G | 0.88
U39A A140G | 1.16
U19G A94G | 1.02
A52U A55U | 1.62
A18U U122A | 0.64
A33G A64G | 0.5
U57A | 0.69
A60U A91G | 1.34
U72G A114U | 0.6
A33G A52G | 0.91
A54U A89C | 1.5
